The target of test [1] is chimeric protein βGal-117S4HPPH34 (E. coli; human).
The target in test [2] is chimeric protein βGal-139S(FM)PPH84 (E. coli; human).

Where only a bound is given, the exact number is not on record here.

The substance Kex2-660 (enzyme) showed an excision efficiency of hPTH(1-34) from the chimeric protein in test [1] of more than 90%. In test [2], this substance registered a recovery rate of hPTH(1-84) excised from the chimeric protein (HPLC) of 75%.

The values above are taken from patent US5885821.
